Data on one molecule can be found in PMC8325870, “SUMOylated non-canonical polycomb PRC1.6 complex as a prerequisite for recruitment of transcription factor RBPJ”.

The target of the data set is RBPJ wt (UniProt P31266 1-526). Nature of the data set: EMSA; anti-Flag supershift; 10 mM Tris-HCl pH 7.5, 100 mM NaCl, 0.1 mM EDTA, 0.5 mM DTT, 4% glycerol, 10 ng poly(dI-dC), ~0.5 ng 32P-oligo, 2 or 4 ul reticulocyte lysate; temperature not stated. The settings on record: protein: ivt; tags: Flag; label: 32P; 5' overhang 4 nt at both ends (CCTG on F, CTCG on R).
Chain of RBPJ wt (P31266 whole entry): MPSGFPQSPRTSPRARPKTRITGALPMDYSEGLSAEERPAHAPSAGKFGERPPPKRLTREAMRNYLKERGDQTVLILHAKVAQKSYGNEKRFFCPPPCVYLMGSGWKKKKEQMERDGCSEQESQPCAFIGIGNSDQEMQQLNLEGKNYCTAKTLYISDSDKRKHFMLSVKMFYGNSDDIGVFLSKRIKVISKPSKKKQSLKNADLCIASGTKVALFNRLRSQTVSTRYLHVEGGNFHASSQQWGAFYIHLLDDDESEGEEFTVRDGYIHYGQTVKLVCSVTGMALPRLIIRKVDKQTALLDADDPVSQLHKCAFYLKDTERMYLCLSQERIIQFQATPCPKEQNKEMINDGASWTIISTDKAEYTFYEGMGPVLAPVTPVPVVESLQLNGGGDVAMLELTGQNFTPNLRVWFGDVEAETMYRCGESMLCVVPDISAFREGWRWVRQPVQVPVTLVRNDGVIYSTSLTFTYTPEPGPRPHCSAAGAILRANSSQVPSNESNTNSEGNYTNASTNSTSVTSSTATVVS

B1: FO-233F/FO-233R (EBV TP-1 promoter, two RBPJ sites) (dsDNA)
DNA 1: CCTGGAACTATTTTCCCACGGTGCCCTTCCGCCCATTTTCCCACGAGTCG
DNA 2: CTCGCGACTCGTGGGAAAATGGGCGGAAGGGCACCGTGGGAAAATAGTTC
In the case of B1, the binding result is given as “binds”.
